Test: soluble on expression in E. coli; label from the status in PepcDB or PDB records

Row | Sequence | soluble on expression in E. coli
1 | MDTLDELLPREKMLRSGIASLSDVELLALFLRTGTPGKDVMTLAKEILQHFGSLYGLLSADFAQFRGVNGIGLAKFAQLKGIAELARRYYSVRMNEESALLSPEMTREFLQSQLTGEEREIFLVIFLDAQHRVLQHSRLFSGTLNHVEVHPREIVREAIKLNASAVILAHNHPSGCAEPSKADKLITERVIKCCQFMDIRVLDHLIIGRGEYVSFAERGWI | not soluble
2 | MNPVLKSSKLVIFDLDGTLYEGTDHFDYYANHLKQNVPQSQQLDFWRDYTAMKDGHHPVQIGKGYDVKRDYILTIDPMTISVQSVQTWDGSYVPAEEWETLYSDPVSFDFETIIAVGDGWWYPFVTAKHYGVEDCYASYVATKEYMVTDEFELTPLPGLREGLIELKATKEIVLVTNSDREDVQRLLHELHLHDVFNHIITSAKKPTRTTDIFKEVVHQYEVDMSQVVSVGDNFMNEIAQALTLGMQGIYIHPQRASEVAHDHLTVIRSVVELFKNLEHHHHHH | soluble
3 | SLESEGRSPIFTHLVTSLKGLWTLRAFGRQPYFETLFHKALNLHTANGGAMFSLIYKKTLKLSSRVLDKISIGQLVSLLSNNLNKFDEGGGGAINKIQDFLQKQEYKTLEYNLTTTEVVMENVTAFWEEGFGELFEKAKQNNNNRKTSNGDDSLFFSNFSLLGTPVLKDINFKIERGQLLAVAGSTGAGKTSLLMMIMGELEPSEGKIKHSGRISFCSQFSWIMPGTIKENIIFGVSYDEYRYRSVIKACQLEEDISKFAEKDNIVLGEGGITLSGGQRARISLARAVYKDADLYLLDSPFGYLDVLTEKEIFESCVCKLMANKTRILVTSKMEHLKKADKILILHEGSSYFYGTFSELQNLQPDFSSKLMG | soluble
4 | MAHHHHHHMKKKNNNKLHYLDSKGKLYTSGLRSDTKEKYGEIPSSNKNHNLIEKYNELQSLLSKEEEKYDFVKNELGDLQKQKDLLKWHLCNNIKKLSMKRSDYKFKTETKSKLESKLKSLKDMNKIHKFEHDTLEELVHKMEQELETKMYIKNDIENIFNECINKKDEYLKDITQERISVFKERKKRQNQLQKLLLIMKQENNKNYNINYLKKYESNLMNEINSYKNYKDFETKIAMDLIDDHSLNDLYVT | not soluble
5 | MAHHHHHHMQKTILQILREQDDASSSCVLALLKGNASFQCLSKSEGEDILKRDNEDAEKLSDGIRIAIRKGIVSGKPDVSPVNKLNVVGLSAQEVTDKIVAALPSKNGNVIILQGLSGTGKGTTVSKLKDALPKCVTWSNGNIFRSYTYLCNEVLAAQGKEITEESLTDELLSSVEKRVTFVKCEDGMFHTMLDGTRRVADVQNTLLKTPLISSKVPTVAQQTQGEVIRFGAGAVKQLSADGYNVILEGRSQTLDYISSPLRFELIIPDVEVLGQRRAAQRVMAKALEMLDDSASDEEVSKVLVKAVETLQ | soluble
6 | GSARQQEIDMKRQQRFFRIPFIRPADQYKDPQNKKKGWWYAHFDGPWIARQMELHPDKPPILLVAGKDDMEMCELNLEETGLTRKRGAEILPRQFEEIWERCGGIQYLQSAIESRQARPTYATAMLQNLLKGSSGGSLVPR | soluble
7 | MQFGRHISGQFNVELESIRSQVLTMGGLVEQQLTLAMQALHEDDEKLARRVIADDHKVNAMEVSIDEACTRIIAKRQPTAKDLRLIMAIIKTITDLERIGDSATKMAYIAIERPPAKQHQFQVSLEPLCRQAIAMLHQVLDAFARMDVEAAAEIYKQDDRLDKEYEAVVRQLMTYMMEDPKNIPHILQVIWSARAIERVGDRCQNICEYIIYFVKGKDVRHLGDQGIDDVLKKPSL | not soluble
8 | MSLVEELLKITLKSDELHRRLGGGIPAGTIMLIEGDRGTGKSILSQRLLYGFLMNGYTSSYVSSQYTTVEYIKQMMSISYDVIPFLIRKKLVFVSLYPLLSGVSEERKFLSRLLGEPRLWDQDVVIIDSFSSVLSREQDVRAVRNFLMYIKKLSSLGKVIILTANPEELSRDVMFLLEEASTLLIRLNVRVFGGDLKNSATIVKYNNAKGAFQKIIPFRVEPKVGLVVEIAAVVEGHHHHHH | soluble
9 | MGSDKIHHHHHHLNAKIVCVSNKQLTISLDDFSGPLDLLLHLIRTQELDIFDLPIAKVTDQFLSFIDNQLNPSLDSAGEYLYMASTLIRIKSRFLLPTVKNEQEDEKEEDPRNELVNALIEYECYQAVTQDMSELEHSRSLSFTRPVAKIPENIEIKPLSAGVTLQDLQKAFLEIANRQKDLHPKKRTIERENFSVADKINEIKTFFGQKKLDSKIEFQYLFKLSSSNDEMITTFLAILELAKDHFILLSQNDEQQIFLTKGEMNA | not soluble
10 | LCPDAVAGIAVAAPHIYVEDITVANIAVALRAYRETTLRDRLARYHDDVDSTFASWTDTWLDPAFRQWNIEAYLPAITCPMLAMQGVDDEYGTLEQIRGIRRLAPQTRLLEIQDCGHSPHKDQPELVTRALAGFV | not soluble
11 | MSGDGDSSTTSSAGDGSTSKDKIPAFSEIRVIEVNRDNFAKIWPYLLVCIKSADFTAIDLELSGLGGKGLRSRDIAERYQAIRDAAHTRSILSVGIATMKLTHKSEKRRALRYETQVFNILTFSEKPFTIEPSALQFLAKHSFDFNRLIQSGVRFQGANCPLKTLFRELLGSSATFCLHNGFIDLAFIYKQLYDIDLPDTLDGFVNNLSDMFPDNYLPVADSKYLAEYQTRMTASFLEYVFRRTQGDNEIERQNNRYHIEICFPSSEKSIKALKNATESVDVRLPEGFPDHAIPIDLHIHVCKYFAYHGFCHARNTEKGCKLLHDVDTAIDLQRIKENKKAFKRKRRYNNVIAESVAEKTGTDEEAWKNAKFEQNLLTRDFRELKRNVVTGLHRAGVDAFMTAFAVIYQQRRTLMADNSVDLKFLNRVPLSAKDKPLHLRHRPVPVPQSEQIDAHLEAMVEINKQRDYIRMNAAATVIKSVQKEDTPCED | not soluble
12 | MISANRPIINLDLDLLRTFVAVADLNTFAAAAAAVCRTQSAVSQQMQRLEQLVGKELFARHGRNKLLTEHGIQLLGYARKILRFNDEACSSLMFSNLQGVLTIGASDESADTILPFLLNRVSSVYPKLALDVRVKRNAYMAEMLESQEVDLMVTTHRPSAFKALNLRTSPTHWYCAAEYVLQKGEPIPLVLLDDPSPFRDMVLATLNKVDIPWRLAYVASTLPAVRAAVKAGLGVTARPVEMMSPDLRVLSGVDGLPPLPDTEYLLCYDPSSNNELAQVIYQAMESYHNPWQYSPMSAPEGDDSLLIERDIE | not soluble
13 | MGSSHHHHHHSSGLVPRGSHMNNIDFDSIAKMLLIKYKDFILSKFKKAAPVENIRFQNLVHTNQFAQGVLGQSQHLCTVYDNPSWHSIVLETLDLDLIYKNVDKEFAKDGHAEGENIYTDYLVKELLRYFKQDFFKWCNKPDCNHCGQNTSENMTPLGSQGPNGEESKFNCGTVEIYKCNRCGNITRFPRYNDPIKLLETRKGRCGEWCNLFTLILKSFGLDVRYVWNREDHVWCEYFSNFLNRWVHVDSCEQSFDQPYIYSINWNKKMSYCIAFGKDGVVDVSKRYILQNELPRDQIKEEDLKFLCQFITKRLRYSLNDDEIYQLACRDEQEQIELIRGKTQETKSESVSAASK | soluble
14 | MLVKDFMTRNPITIAPETSFSEALKLMKQNKIKRLIVMKNEKIVGIVTEKDLLYASPSKATTLNIWELHYLLSKLKIEEIMTKDVVTVNENTPIEDAARIMEEKDISGLPVVDDAGRLVGIITQTDIFKVFVEIFGTKREGTIRYTMEMPDKPGELLEVAKRIYEAGGNIISIATLFEEGKDSYLATLRVENIDHEKFVKSLDEIDVKLLYYHSN | soluble
15 | MSLARQVTAFNTGWQFKKGPFATDPMRAASQWDGKWETVEIPHTWNAMDMQVQSGSFYEGAGYYRKTQFFPHDLEGKRVFLRFEGVGACAEVYVNGKLAGTHKGGYSAFACEIGTALKLGAENEIIVKADNKARPDVIPVNQNLFGVYGGIYRPVWLIVTEQNNITVTDCASPGVYITQKDVSKKSADITVKVKLDNAGLQPAAVTLENTIYTQEGQKVGTHSRSFDLSPQGTQTYLSTFKLKNPHLWQGRKDPYLYKVVCRLMADGKVIDEVVQPLGVRKYEIVAGKGFFLNGEKYSMYGVTRHQDWWGLGSALKNEHHDFDLAAIMDVGATTVRFAHYQQSDYLYSRCDTLGLIIWAEIPCVNRVTGYETENAQSQLRELIRQSFNHPSIYVWGLHNEVYQPHEYTAALTRSLHDLAKTEDPDRYTVSVNGYGHMDHPVNLNADIQGMNRYFGWYEKKIQDIKPWVEQLEKDYPYQKLMLTEYGADANLAHQTEYLGDALNWGKPFYPETFQTKTHEYQWSIIKDHPYIIASYLWNMFDFAVPMWTRGGVPARNMKGLITFDRKTKKDSYFWYKANWSEEPVLYLTQREGHHHHHH | not soluble
16 | MSLSPSPAIPSNTDYPGPHSFDVSFQQSSTAKSATWTYSTELKKLYCQIAKTCPIQIKVMTPPPQGAVIRAMPVYKKAEHVTEVVKRCPNHELSREFNEGQIAPPSHLIRVEGNSHAQYVEDPITGRQSVLVPYEPPQVGTEFTTVLYNFMCNSSCVGGMNRRPILIIVTLETRDGQVLGRRCFEARICACPGRDRKADEDSIRKQQVSDSTKNGDGTKRPFRQNTEGHHHHHH | soluble
17 | MLTRSMVLVNEAWWVEPLPVHWVDKLVAELEAKLQNRGKDEYIFNGGLSVSGLQHIGRLRGEVLLGEAVRRELEKRGFRVKQLLTLYTVDPWKGKDEQRREFPDPKAAERYVGWPLDRVPDPKGCHASWVDHFWSDFGPYIGVFTDGKIEVVTTRELYKGRLKEFITTMVLPRRDEIRRVINKYRGRKPYQEGWIPLEPRCARCGRIDSTEALEILGGERVRYRCSYCGYQGESSIEDSKLNWRIEWAGVWWSLGVDFEPYGKDHATPGGSRDSAAELARLLGFEPPEGVWYEWVSLRAGGREADMSSSGFTGITPREWLDIAHPQILRFIYFLHPPTRRVVVDLSEIPSYYSQYYRAERIYFGIEEASTVEETRYLARTYELSHPSNPPAKPPSQIPYSHAAIVAQVVGPERLWTDGLERLKRAGLLGHDEYSIRWAKELLEKAYKWARRYAPKHLKFEIPDSPPEDALRRIEKPDLLEKLAEVLESVEEWSEERIKQALVEFGEGMSSSERRRFYRDFYLAIVGRPEGPRAAPLLSLMDRGFVVDRLRKAANLSRELKGR | soluble
18 | MSLDVSLKLKGIDGALEDNVKAYLSSIPEKDYSTSLRFQARLDQSITEALNALGYYHAKISYSISEGNDELIVNIHKGLPVKIKVMDVVISGEAKEDEEFTNLIAKSPLKVGRILNQGEYDSLKSGIRNLALQRGYFNGDFKLNKLEVIPELNEANVRLHYDSGIRYHFGPVEITGSQIWENRVESMRPFEIGEPYLVSDVGEYNQNLSNTDWFSSVFVEPDLSKLEDGRELPIKVSLAPAAKNQIETGIGYSTDTGVRGTLKWKKPWVSARGHSFNTALSLSKPEQTITAGYKIPLDDVLREYYQLQFGLKHLDNRDTESLESNLAVERHWLTDGGWHKTVYVRHLYENFSQGLQDDGVQFVLPGATFSRTRVRGGSMPMWGDKQSVTVEYGDPALLSETRVLRLLGRSSWIRGIGENHRGLFRLEGGANITEEFEKLSPSLRFFAGGDNNIRGYGYESISPVDESGALTGAKYILSSTLEYQYRVYGNWWAATFYDIGDAFNDTPEWKSGAGVGIRWASPVGPVSFDFAWGLDEKPNNEFRIHFSLGPELEGHHHHHH | not soluble
19 | KEQILSSEQLARKMMLELGDKKQEHLVAIYMDTQNRIIEQRTIFIGTVRRSVAEPREILHYACKNMATSLIIIHNHPSGSPKPSESDLSFTKKIKRSCDHLGIVCLDHIIVGKNKYYSFREEADI | not soluble
20 | VARADESLQQVVMAYFGVQFKSEQKAIALKAMQHIVQSFSLDNGPQNHDITHHTDNQGYENYIVVGYWRDPGAYCRWFRSTEVSHWWDSDERLNDGIGYFREIVIPRADQFETLYAFKEDLPGVGAVMDDISDDIQEHGYWGSARERF | not soluble
21 | MGHHHHHHSHMERFVVTAPPARNRSKTALYVTPLDRVTEFGGELHEDGGKLFCTSCNVVLNHVRKSAISDHLKSKTHTKRKAEFEEQNVRKKQRPLTASLQCNSTAQTEKVSVIQDFVKMCLEANIPLEKADHPAVRAFLSRHVKNGGSIPKSDQLRRTYLPDGYENENQLLNSQDC | soluble
